To fix the notation:
T1: bovine LPL (bovine, UniProt P11151 29-478)
T1 sequence (looked up): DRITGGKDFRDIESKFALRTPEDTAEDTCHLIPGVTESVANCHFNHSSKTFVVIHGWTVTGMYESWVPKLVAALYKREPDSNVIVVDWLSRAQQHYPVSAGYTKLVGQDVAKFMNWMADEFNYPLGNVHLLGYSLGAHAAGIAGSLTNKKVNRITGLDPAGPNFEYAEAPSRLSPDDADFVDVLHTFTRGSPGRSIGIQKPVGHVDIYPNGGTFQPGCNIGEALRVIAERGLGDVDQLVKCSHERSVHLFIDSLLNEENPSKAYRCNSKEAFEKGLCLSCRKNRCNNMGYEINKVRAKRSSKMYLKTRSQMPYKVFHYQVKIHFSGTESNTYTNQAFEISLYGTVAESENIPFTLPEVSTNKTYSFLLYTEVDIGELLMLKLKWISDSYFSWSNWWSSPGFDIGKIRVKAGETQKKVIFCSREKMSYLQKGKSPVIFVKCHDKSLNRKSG

T2: cynomolgus monkey ANGPTL4 N-terminal region (amino acid residues 1-130 of SEQ ID NO:490) with a C-terminal … (cynomolgus monkey (Macaca fascicularis), UniProt Q9BY76 26-130 (human entry))
T2 construct: also called MfANGPTL4(1-130)-His
T2 chain: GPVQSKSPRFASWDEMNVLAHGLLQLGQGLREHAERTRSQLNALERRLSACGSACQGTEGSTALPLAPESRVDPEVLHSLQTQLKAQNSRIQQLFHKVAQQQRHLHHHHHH

B1: full-length hANGPTL4 (amino acid residues 26-406 of SEQ ID NO:476) with a C-terminal hexa-histidine tag (ligand)
chain: GPVQSKSPRFASWDEMNVLAHGLLQLGQGLREHAERTRSQLSALERRLSACGSACQGTEGSTDLPLAPESRVDPEVLHSLQTQLKAQNSRIQQLFHKVAQQQRHLEKQHLRIQHLQSQFGLLDHKHLDHEVAKPARRKRLPEMAQPVDPAHNVSRLHRLPRDCQELFQVGERQSGLFEIQPQGSPPFLVNCKMTSDGGWTVIQRRHDGSVDFNRPWEAYKAGFGDPHGEFWLGLEKVHSITGDRNSRLAVQLRDWDGNAELLQFSVHLGGEDTAYSLQLTAPVAGQLGATTVPPSGLSVPFSTWDQDHDLRRDKNCAKSLSGGWWFGTCSHSNLNGQYFRSIPQQRQKLKKGIFWKTWRGRYYPLQATTMLIQPMAAEAASHHHHHH
B2: H4H268P2 (antibody, human IgG4 S228P, V domains shown)
VH: QVQLQQSGAGLLKPSETLSLTCTVYGGSFSIHHWTWIRHPPGKGLEWIGEINHRGSTNYNPSLKSRVTISIDTSKNQFSLKLSAVTAADTAVYYCARGLRFLDWLSSYFDYWGQGTLVTVSS
VL: DIQMTQSPSSLSASVGDRVTITCRASQGISDYLAWYQQKPGKVPNLLIYAASALQSGVPSRFSGSGSGTDFTLTISSLQPEDVATYYCQNYNTAPLTFGGGTKVEIK
notes: IgG4 version of H1H268P
B3: H1H268P Fab fragment (Fab, V domains shown)
VH: B2 VH with Q6E
VL: B2 VL
notes: Fab made by papain digestion of H1H268P (IgG1); also called H1H268 Fab
B4: mANGPTL4-His [R26-S410 of mANGPTL4 (SEQ ID NO: 478) fused with an AS linker to a C-terminal 6-histidine tag] (ligand)
chain: RPAQPEPPRFASWDEMNLLAHGLLQLGHGLREHVERTRGQLGALERRMAACGNACQGPKGKDAPFKDSEDRVPEGQTPETLQSLQTQLKAQNSKIQQLFQKVAQQQRYLSKQNLRIQNLQSQIDLLAPTHLDNGVDKTSRGKRLPKMTQLIGLTPNATHLHRPPRDCQELFQEGERHSGLFQIQPLGSPPFLVNCEMTSDGGWTVIQRRLNGSVDFNQSWEAYKDGFGDPQGEFWLGLEKMHSITGNRGSQLAVQLQDWDGNAKLLQFPIHLGGEDTAYSLQLTEPTANELGATNVSPNGLSLPFSTWDQDHDLRGDLNCAKSLSGGWWFGTCSHSNLNGQYFHSIPRQRQERKKGIFWKTWKGRYYPLQATTLLIQPMEATAASASHHHHHH
B5: H4H284P (antibody, human IgG4 S228P, V domains shown)
VH: QVQLVESGGGVVQPGRSLRLSCAASGFTFSSYGMHWVRQAPGKGLEWMAVISFDGGNKNNADSVKGRFTISRDNSKNTLYLQMNSLRAEDTAVYYCAKEGDRSGHPYFYYYGLDVWGQGTTVTVSA
VL: DIQLTQSPSFLSASVGDRVTITCWASQGISSYLAWYQQKPGKAPKLLIYAASTLQSGVPSRFSGSGSETEFTLTISSLQPEDFATYYCQQLHSYPLTFGGGTKVEIK
notes: IgG4 version of H1H284P (constant region replaced)
B6: amino acid residues 26-148 of human ANGPTL4 fused in-line to mouse IgG2a (hANGPTL4-mFc) (Fc fusion)
chain: GPVQSKSPRFASWDEMNVLAHGLLQLGQGLREHAERTRSQLSALERRLSACGSACQGTEGSTDLPLAPESRVDPEVLHSLQTQLKAQNSRIQQLFHKVAQQQRHLEKQHLRIQHLQSQFGLLDPGSLEFALERNSGEPRGPTIKPCPPCKCPAPNLLGGPSVFIFPPKIKDVLMISLSPIVTCVVVDVSEDDPDVQISWFVNNVEVHTAQTQTHREDYNSTLRVVSALPIQHQDWMSGKEFKCKVNNKDLPAPIERTISKPKGSVRAPQVYVLPPPEEEMTKKQVTLTCMVTDFMPEDIYVEWTNNGKTELNYKNTEPVLDSDGSYFMYSKLRVEKKNWVERNSYSCSVVHEGLHNHHTTKSFSRTPGK

Residue numbers refer to the chain shown, from its start.

Test [1] has as its target T1, bovine LPL. The test is described as follows: cell-based or functional assay.
For test [2], the target named is T1, bovine LPL. Kind of test: cell-based or functional assay. This is another data set of the same source.
The target of test [3] is B1. Kind of test: cell-based or functional assay.
Test [4] has as its target B6. Kind of test: cell-based or functional assay.
Test [5] has as its target B6. Kind of test: SPR (Biacore), pH 7.4, 25° C., protocol of Example 3. As to the method:
Antigen-antibody binding and dissociation were monitored in real time at 25° C. and 37° C. Kinetic analysis was performed to calculate KD and half-life of antigen/antibody complex dissociation.
Furthermore, a single amino acid substitution was introduced in the framework region 1 of H1H268P (SEQ ID NO:42) to form H4H268P2 (SEQ ID NO:487) in the IgG4 version.
(In general: In SPR one partner is held on a chip, and binding of the other changes the refractive index at the surface.)

Test [6] addresses B1. Kind of test: SPR (Biacore), 25° C., pH 7.2, antigen amino-coupled 450 RU. The method, then: (§1) Kinetic analysis was performed to measure kₐ and kd, and KD values and half-life of antigen/antibody complex dissociation were calculated. The results are shown in Table 4 (H1H268P) and Table 5 (H1H284P).
The target in test [7] is B6. Kind of test: SPR (Biacore), 25° C., pH 7.2, antigen captured by anti-mFc. The method, then:
as §1

The target of test [8] is B6. Kind of test: SPR (Biacore), 25° C., pH 5.75, antigen captured by anti-mFc. As to the method:
as §1

For test [9], the target named is T2, cynomolgus monkey ANGPTL4 N-terminal …. Kind of test: SPR (Biacore), 25° C., pH 5.75, antigen amino-coupled 1,028 RU. The method, then:
as §1

Test [10] addresses B1. Kind of test: SPR (Biacore), 25° C., pH 5.75, antigen amino-coupled 450 RU. The method, then:
as §1

Test [11] deals with T2, cynomolgus monkey ANGPTL4 N-terminal …. The test is described as follows: SPR (Biacore), 25° C., pH 5.75, antigen amino-coupled 1,028 RU; Fab, not full mAb; pH 5.75. As to the method:
as §1

Test [12] shares this target. Kind of test: SPR (Biacore), 25° C., pH 7.2, antigen amino-coupled 1,028 RU. The method, then: as §1

The text below walks through data of US20130266574A1 (Regeneron, published 2013).

A word on the Kd: it is the concentration at which binding is half-saturated. The term koff denotes a measure of how fast the partners let go of each other. As usually defined, the kon is a measure of how fast the partners come together.

Consider B1, for which, in the test with bovine LPL [1], the “EC50 (nM) of the ANGPTL4 protein in the LPL assay” value (“EC50 (nM) … in the LPL assay” below) is 6 nM. For the same molecule, in the test with bovine LPL [2], the “EC50 (nM) of the ANGPTL4 protein in the LPL inhibition assay” value is 4.54 nM.

With B2, in test [3], the “IC50 (nM) in the LPL inhibition assay, constant ANGPTL4 10 nM” value turned out to be 1.61 nM. Further, the “IC50 (nM) in the LPL inhibition assay, constant ANGPTL4 2 nM” value in test [4] was determined as 1.85 nM. In [5], this molecule registered a Kd of 0.146 nM and a t1/2 of 195 min.

As to B3, the Kd turned out to be 16.3 nM in test [6]; 2 nM in test [7]; 17.5 nM in test [8]; 14.8 nM in test [10]; 13.8 nM in test [11]; 6.42 nM in [12]. The koff in test [6] stood at 0.0118 s⁻¹; in [7] it was 0.000601 s⁻¹; in test [8], 0.00304 s⁻¹; in [9] it was 0.00432 s⁻¹; in test [10], 0.00657 s⁻¹; in [12], 0.00171 s⁻¹. Moreover, the kon in [6] worked out at 726000 M⁻¹ s⁻¹; in [7], 300000 M⁻¹ s⁻¹; in test [8] it was 174000 M⁻¹ s⁻¹; in [9], 312000 M⁻¹ s⁻¹; in test [10] it was 444000 M⁻¹ s⁻¹; in [12], 267000 M⁻¹ s⁻¹. The t1/2 in test [6] was 1 min; in [7], 19 min; in [8] it was 4 min; in [9], 3 min; in test [10], 2 min; in test [12], 7 min.

Consider B4, for which the “EC50 (nM) … in the LPL assay” value with bovine LPL [1] stood at 0.63 nM.

For the molecule B5, the “IC50 (nM) in the LPL inhibition assay, constant ANGPTL4 10 nM” value in test [3] is 1.19 nM. Further, the “IC50 (nM) in the LPL inhibition assay, constant ANGPTL4 2 nM” value in test [4] worked out at 1.69 nM. In test [5], this molecule gave a Kd of 0.143 nM and a t1/2 of 205 min.

In the case of B6, the “EC50 (nM) … in the LPL assay” value with bovine LPL [1] was determined as 0.5 nM. The “EC50 (nM) of the ANGPTL4 protein in the LPL inhibition assay” value in the test with bovine LPL [2] worked out at 0.29 nM.
